Entries after “also recorded” stand apart in the source; their conditions may differ.
Columns and labels:
Aβ secretion [1] = test: Aβ secretion, transient expression of LRP-CT in human glioma cells; format: cell-based
APP = biological target: T1, APP (Homo sapiens, UniProt P05067); test: APP and LRP co-immunoprecipitation; format: binding; conditions: transfected cells
T1 construct: expressed in transfected cells

APP internalization = test: Internalization of cell surface APP by iodinated 1G7 antibody at 37° C.; format: cell-based, mouse; conditions: LRP-CT expressed in APP751 expressing LRP−/− cells; 30 min at 37° C.; compared to LRP± cells
Method: To measure internalization of cell surface APP, iodinated 1G7 antibody was added to confluent cultures of LRP±, LRP−/−, or LRP−/−CT fibroblasts stably transfected with APP695 or APP751 at 37° C. for 30 min. After incubation, cells were rapidly chilled on ice, and the reaction was quenched by the addition of ice-cold binding medium. Chilled cells were extensively washed and remaining surface antibody was detached by two acid washes. The cells were then lysed and collected for analysis. Acid-labile and acid-resistant radioactivity represents the surface and internalized pools of APP, respectively. Specific binding was determined after subtraction of the radioactive counts obtained from parallel cultures of untransfected LRP± and LRP−/− fibroblasts. The ratio of acid-resistant to acid-labile counts therefore provided a measure of the internalized versus cell surface pools of APP. All experiments in this study were repeated one to three times. […]
RESULTS: An APP internalization assay was performed in LRP-deficient cells expressing either APP695 or APP751 using a protocol established in Inventors' laboratory in which iodinated APP monoclonal antibody (1G7) was added to cultured cells at 37° C. for 30 minutes [Koo E H and Squazzo S L. J. Biol. Chem. 269:17386-17389, 1994]. Internalized and cell surface APP can be rapidly determined by the acid resistant and acid labile pools, respectively. […]

APPs = APPs in medium by immunoprecipitation-western blotting, LRP−/− fibroblasts expressing LRP-CT constructs; format: cell-based, mouse; conditions: construct expressed in LRP−/− fibroblasts expressing APP751; compared to LRP± control cells
Method: (§1) Mouse fibroblasts deficient in LRP (LRP−/−; PEA 13) and corresponding LRP expressing control cells (LRP±; PEA 10) were obtained from American Type Culture Collection (Rockville, Md., USA) and cultured as described previously (Kang et al., 2000). LRP deficient CHO cell line (13-5-1), CHO cell line expressing a LRP trafficking mutant (14-2-1), and corresponding CHO K1 control cells (kind gift of Dr. S. Leppla) were grown in alpha DMEM supplemented with 10% fetal bovine serum (FitzGerald et al., 1995). Human APP695 and APP751 were inserted into the pBabepuro retroviral expression vector (Morgenstern and Land, 1990) and transferred into GP+E86 packaging cell line. Stable transformants were selected with puromycin (5 μg/ml). After infection with recombinant viruses, mouse fibroblasts were selected with puromycin (2.5 μg/ml)and analyzed after clonal selection for equal APP expression. […] After infection with recombinant viruses, LRP−/− mouse fibroblasts were selected with hygromycin (2.5 μg/ml) and analyzed (LRP−/−CT). […]
(§2) For detection of intracellular proteins, cell extracts were prepared using an NP40 lysis buffer. […] Western blotting was carried out with the indicated antibodies and detected by enhanced chemiluminescence (Pierce). Quantitation of the chemiluminescence signal was carried out with a CCD camera imaging system (GeneGnome, Syngene, Frederick, Md.).

cell surface APP = test: Cell surface APP by iodinated 1G7 antibody at 4° C.; format: cell-based, mouse; conditions: LRP-CT expressed in LRP−/− cells expressing APP751
Method: To measure APP surface expression or internalization of surface APP, iodinated 1G7 monoclonal antibody was added to the cells in triplicate exactly as described previously (Koo et al., 1996). For the measurement of cell surface APP, the iodinated antibody was added to APP transfected LRP± and LRP−/− fibroblasts at 4° C. for 30 min followed by extensive washes. Specific binding was calculated after subtraction of the radioactivity obtained from parallel cultures of untransfected LRP± and LRP−/− fibroblasts, respectively. The radioactivity was then normalized to the rate of production of APP, which was determined in parallel cultures. The latter cells were metabolically labeled as described before and immunoprecipitated with polyclonal APP antibody to the C-terminus (CT15). Immunoprecipitates were subjected to SDS-PAGE, gels were dried and the APP signal was quantified by phosphor imaging.

Aβ = Aβ ELISA of medium from LRP−/− fibroblasts expressing LRP-CT; format: cell-based, mouse; conditions: LRP-CT expressed in LRP−/− cells transfected with APP751; 72 hour collection; compared to LRP± cells
Method: Media from LRP−/−, LRP± LRP−/−CT fibroblasts was collected after an incubation period of 72 hours in serum free IS-CHO medium. Debris was removed by centrifugation (13,000 rpm for 20 min) and the supernatants were subjected to Aβ40 quantification using a standard sandwich ELISA described previously (Kang et al., 2000).

APP processing = test: Restoration of APP processing in LRP deficient cells (summary statements); format: cell-based; conditions: construct expressed in LRP deficient cells
Aβ secretion [2] = test: Aβ secretion from APP751-expressing CHO cells transfected with LRP-CT; format: cell-based; conditions: LRP-CT overexpressed in APP751-expressing CHO cells (LRP +/+)
APP-CTF = APP-CTF levels by immunoblotting (CT15) after expression of LRP-CT constructs in LRP−/− fibroblasts; format: cell-based, mouse; conditions: construct expressed in LRP−/− fibroblasts expressing APP751; compared to LRP± control cells
Method: as §1, §2

[3] = system: APP processing in CHO 13-5-1 cells; test: Transient expression of LRP-CT constructs in LRP deficient CHO 13-5-1 cells, APP-CTF and APPs by immunoblotting; format: cell-based; conditions: LRP−/− CHO 13-5-1 cells; compared to control levels
Method: as §1, §2

Aβ secretion [4] = test: Aβ secretion, transient expression of LRP-CT in N2A mouse neuroblastoma cells; format: cell-based

B1: LRP-CT: last 370 amino acids of the LRP β-subunit, transmembrane domain and entire cytoplasmic region, with signal peptide (protein)
chain: KRLDNGTCVPVPSPTPPPDAPRPGTCNLQCFNGGSCFLNARRQPKCRCQPRYTGDKCELDQCWEHCRNGGTCAASPSGMPTCRCPTGFTGPKCTQQVCAGYCANNSTCTVNQGNQPQCRCLPGFLGDRCQYRQCSGYCENFGTCQMAADGSRQCRCTAYFEGSRCEVNKCSRCLEGACVVNKQSGDVTCNCTDGRVAPSCLTCVGHCSNGGSCTMNSKMMPECQCPPHMTGPRCEEHVFSQQQPGHIASILIPLLLLLLLVLVAGVVFWYKRRVQGAKGFQHQRMTNGAMNVEIGNPTYKMYEGGEPDDVGGLLDADFALDPDKPTNFTNPVYATLYMGGHGSRHSLASTDEKRELLGRGPEDEIGDPLA
Aβ secretion [1]
  Aβ secretion: likewise reduced Aβ secretion
APP
  co-immunoprecipitation with APP: can not only co-IP APP with LRP, but also with LRP-CT; also recorded: APP complexes with LRP-CT
APP internalization
  APP internalization from the cell surface: largely restored to control level; also recorded: restored to almost control levels; also recorded: can be restored; also recorded: similarly restored; also recorded: partially restored
APPs
  levels of APPs in medium (APPs secretion): restored the levels of APPs back to the levels seen in APP751 overexpressing cells; also recorded: restored to control levels; also recorded: restores the abnormal levels of APPs; also recorded: restored to normal levels; also recorded: can be restored
Cell surface APP
  amount of cell surface APP: did not alter the amount of cell surface APP
Aβ
  Aβ level in medium: restored to control level present in LRP± control cells; also recorded: restored the Aβ levels back to control conditions; also recorded: can be restored
APP processing
  APP processing steps altered in the absence of LRP: can be restored; also recorded: partial to full restoration
Aβ secretion [2]
  Aβ secretion: inhibited Aβ secretion; also recorded: dramatically inhibited; also recorded: reduce Aβ secretion in proportion to level of expression
APP-CTF
  levels of APP-CTF: restored to levels similar to LRP± cells; also recorded: restored to control levels; also recorded: can be restored; also recorded: restored to the level seen in LRP± cells
[3]
  deficiencies in APP processing: able to restore the deficiencies in APP processing in LRP−/− CHO 13-5-1 cells to control levels
Aβ secretion [4]
  Aβ secretion: likewise reduced Aβ secretion

From patent US20040038338A1, “Influence of LRP cytoplasmic domain on Abeta production” (priority 2001, published 2004)
